This is an account of results in patent US20100028347A1 (Eli Lilly, published 2010).

The term IC50 denotes the point on the concentration scale where inhibition reaches its midpoint. A word on the EC50: it is the concentration needed to bring the measured effect to its halfway point. For orientation: Kd means the free concentration of one partner at which half of the binding sites on the other are occupied at equilibrium, for simple one-to-one binding. The kon is the rate constant with which the complex forms.

Assay [1] deals with T1, soluble recombinant human VEGFR-1 alkaline phosphatase (human, UniProt P17948 27-758).
T1 construct: Made in house in stably transfected cells; also called rhuVEGFR-I AP; VEGFR-I AP; not shown: alkaline phosphatase fusion partner
Briefly: blocking ELISA: antibody preincubated with VEGFR-1 AP, binding to VEGF coated plate. On the procedure: (§1) Specifically, hybridoma supernatants or purified antibodies were diluted in PBS with 5% FBS and 0.05% Tween 20 (ELISA buffer) and incubated in rhuVEGFR-I AP or AP coated 96-well microtiter plates for 30 minutes. Plates were washed with the ELISA buffer and incubated with goat anti-mouse IgG-horseradish peroxidase (HRP) conjugate (BioSource International, Camarillo, Calif.) for 30 minutes. TMB (3,3′,5,5′-tetra-methylbenzidine) substrate (Kierkegaard and Perry Lab, Inc., Gaithersburg, Md.) was used for color development following the manufacturer's instruction. The absorbance at 450 nanometers (nm) was read for quantification of binding activity of antibodies. For identification of the hybridomas producing anti-VEGFR-I antibodies, hybridoma supernatants were preincubated with VEGFR-I AP for 1 hour. The mixtures were incubated with the ELISA buffer in VEGF or P1GF coated 96-well microtiter plates for 1 hour. PNPP (p-nitrophenyl phosphate) substrate for AP was used for color development following the manufacturer's instruction. The absorbance at 405 nm was read for quantification of VEGFR-I binding to VEGF or P1GF. Optical density (OD) values were read on a microtiter plate reader (Molecular Devices Corp., Sunnyvale, Calif.). ED50 and IC50 of the antibodies were analyzed using GraphPad Prism 3 software (GraphPad Software, Inc., San Diego, Calif.).

A further assay has as its target T2, mouse VEGFR-1-AP (mouse, UniProt P35969 23-759).
T2 construct: From ImClone Systems; also called mouse VEGFR-I-AP; not shown: alkaline phosphatase fusion partner; not described
T2 sequence (looked up): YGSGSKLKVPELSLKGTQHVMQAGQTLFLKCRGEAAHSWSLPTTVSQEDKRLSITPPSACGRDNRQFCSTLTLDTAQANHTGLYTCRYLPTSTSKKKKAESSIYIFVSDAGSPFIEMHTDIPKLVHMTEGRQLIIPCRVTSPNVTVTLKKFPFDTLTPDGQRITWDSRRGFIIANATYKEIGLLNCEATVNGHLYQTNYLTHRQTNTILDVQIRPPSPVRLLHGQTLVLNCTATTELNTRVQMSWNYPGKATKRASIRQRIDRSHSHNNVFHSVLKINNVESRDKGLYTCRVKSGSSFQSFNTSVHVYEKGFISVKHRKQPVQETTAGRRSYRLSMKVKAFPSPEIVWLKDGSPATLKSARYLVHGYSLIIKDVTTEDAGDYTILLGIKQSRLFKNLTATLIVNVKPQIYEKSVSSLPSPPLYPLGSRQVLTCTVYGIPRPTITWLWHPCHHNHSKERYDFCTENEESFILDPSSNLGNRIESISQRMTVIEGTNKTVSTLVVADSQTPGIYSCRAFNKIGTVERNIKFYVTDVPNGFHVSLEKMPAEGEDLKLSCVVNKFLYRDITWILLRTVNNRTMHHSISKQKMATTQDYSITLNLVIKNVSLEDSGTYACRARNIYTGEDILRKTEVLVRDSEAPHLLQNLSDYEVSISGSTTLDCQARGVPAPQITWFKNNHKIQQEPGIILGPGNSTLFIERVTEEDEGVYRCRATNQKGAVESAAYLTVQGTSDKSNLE
Briefly: ELISA: plate coated with mouse VEGFR-1-AP 100 ng/well, goat anti-human kappa-HRP, O.D. 450. A general note: In an ELISA, binding on a coated surface is turned into a signal by an enzyme label.

The target of assay [2] is T3, native VEGFR-1 expressed on the cell surface (human, UniProt P17948 27-1338). Briefly: cell-based or functional assay.
The target in the next assay is T4, mouse VEGFR-2 Fc (mouse, UniProt P35918 20-762, limits assumed).
T4 construct: not shown: Fc part; not described
Briefly: ELISA: antibody dilutions on plate coated with 1 µg/ml mouse VEGFR-2 Fc, HRP secondary, O.D. 450. On the procedure: (§2) To determine the specificity of an anti-VEGFR-1 monoclonal antibody to human VEGFR-I, purified antibodies 18F1 were tested in an ELISA-based assay. One μg/ml of recombinant human VEGFR-I Fc, mouse VEGFR-I Fc, mouse VEGFR-2 Fc, or human VEGFR-2 alkaline phosphatase was coated with PBS in a 96-well microtiter plates at 4° C. over night. After wash, the receptor coated plates were blocked with PBS containing 5% Dry Milk and 0.05% Tween 20. Serial dilutions of primary antibody 18F1 to human VEGFR-I, MF1 to mouse VEGFR-I, IC1 1 to human VEGFR-2, or DClOl to mouse VEGFR-2 were incubated in the receptor-coated plates for 30 minutes. After wash secondary anti-primary HRP conjugate antibodies was incubated in the plates for 30 minutes. Plates were washed and incubated with the substrate TMB (3,3′,5,5′-tetra-methylbenzidine) for color development. The absorbance at 450 nm was read as OD values for quantification of binding activity of antibodies. Data were analyzed using a GraphPad Prism Software.

Assay [3] deals with T5, human VEGFR-2 alkaline phosphatase (human, UniProt P35968 20-764).
T5 construct: also called huVEGFR-2-AP; not shown: alkaline phosphatase fusion partner; not described
Briefly: ELISA: antibody dilutions on plate coated with 1 µg/ml human VEGFR-2 alkaline phosphatase, HRP secondary, O.D. 450. On the procedure:
as §2

Assay [4] has as its target T1, soluble recombinant human VEGFR-1 …. Briefly: ELISA, purified antibody on rhuVEGFR-1 AP coated plate (given as ED50). On the procedure: as §1
In assay [5] the target is T3, native VEGFR-1 expressed on the cell …. Briefly: cell-based or functional assay. This is another data set of the same source.
Assay [6] deals with T6, recombinant extracellular domain of VEGFR-1 (UniProt P17948 27-758, limits assumed).
T6 construct: extracellular domain
Briefly: SPR, BIAcore 2000, VEGFR-1 extracellular domain immobilised at low density. On the procedure:
Affinities of anti-VEGFR-1 antibody clones 6F9, 13 G12, 15F1 1, 18F1 were determined by plasmon resonance technology using BIAcore 2000 (Pharmacia, Piscataway, N.J.) according to the procedures provided by the manufacturer. Kinetic analyses of the antibodies were performed by immobilization of recombinant extracellular domain of VEGFR-I onto a sensor surface at a low density. The (kₒₙ) and dissociation (kₒ_{^ff}) rates were determined using the BIAevaluation 2.1 software provided by the manufacturer.
A general note: Surface plasmon resonance follows binding to a sensor surface in real time, without labels.

T3 sequence (P17948 27-1338): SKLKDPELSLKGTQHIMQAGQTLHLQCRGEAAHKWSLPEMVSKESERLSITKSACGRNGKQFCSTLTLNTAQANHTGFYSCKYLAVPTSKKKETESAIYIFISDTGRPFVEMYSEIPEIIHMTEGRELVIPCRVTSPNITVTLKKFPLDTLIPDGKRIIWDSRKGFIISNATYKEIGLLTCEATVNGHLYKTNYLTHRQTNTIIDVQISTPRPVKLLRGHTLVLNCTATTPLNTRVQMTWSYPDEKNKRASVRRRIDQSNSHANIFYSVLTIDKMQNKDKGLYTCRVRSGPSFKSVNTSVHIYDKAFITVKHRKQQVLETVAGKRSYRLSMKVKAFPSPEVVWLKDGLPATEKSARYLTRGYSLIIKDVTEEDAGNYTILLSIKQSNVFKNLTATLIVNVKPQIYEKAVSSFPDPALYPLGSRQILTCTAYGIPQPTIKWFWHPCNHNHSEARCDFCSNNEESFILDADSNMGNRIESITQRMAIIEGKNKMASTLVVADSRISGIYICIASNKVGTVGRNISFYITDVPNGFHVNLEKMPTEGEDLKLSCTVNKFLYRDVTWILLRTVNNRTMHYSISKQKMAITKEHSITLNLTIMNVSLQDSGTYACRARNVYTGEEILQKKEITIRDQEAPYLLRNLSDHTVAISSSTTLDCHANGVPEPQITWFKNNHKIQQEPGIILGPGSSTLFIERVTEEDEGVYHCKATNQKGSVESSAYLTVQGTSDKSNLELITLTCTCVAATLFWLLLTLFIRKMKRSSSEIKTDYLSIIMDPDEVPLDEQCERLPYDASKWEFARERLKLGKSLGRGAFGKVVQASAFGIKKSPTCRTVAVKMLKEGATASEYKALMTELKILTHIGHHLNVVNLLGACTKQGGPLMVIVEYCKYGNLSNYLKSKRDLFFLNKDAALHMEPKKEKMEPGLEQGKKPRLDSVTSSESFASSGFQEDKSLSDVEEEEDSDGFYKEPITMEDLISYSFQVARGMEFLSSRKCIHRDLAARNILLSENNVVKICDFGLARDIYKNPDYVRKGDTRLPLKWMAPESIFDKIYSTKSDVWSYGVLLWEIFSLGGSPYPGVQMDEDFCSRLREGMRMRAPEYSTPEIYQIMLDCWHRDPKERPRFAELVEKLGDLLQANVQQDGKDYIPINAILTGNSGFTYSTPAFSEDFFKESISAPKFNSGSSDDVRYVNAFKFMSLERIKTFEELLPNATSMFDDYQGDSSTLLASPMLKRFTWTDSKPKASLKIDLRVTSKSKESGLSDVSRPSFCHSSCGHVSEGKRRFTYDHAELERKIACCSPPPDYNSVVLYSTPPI
T1 sequence (P17948 27-758): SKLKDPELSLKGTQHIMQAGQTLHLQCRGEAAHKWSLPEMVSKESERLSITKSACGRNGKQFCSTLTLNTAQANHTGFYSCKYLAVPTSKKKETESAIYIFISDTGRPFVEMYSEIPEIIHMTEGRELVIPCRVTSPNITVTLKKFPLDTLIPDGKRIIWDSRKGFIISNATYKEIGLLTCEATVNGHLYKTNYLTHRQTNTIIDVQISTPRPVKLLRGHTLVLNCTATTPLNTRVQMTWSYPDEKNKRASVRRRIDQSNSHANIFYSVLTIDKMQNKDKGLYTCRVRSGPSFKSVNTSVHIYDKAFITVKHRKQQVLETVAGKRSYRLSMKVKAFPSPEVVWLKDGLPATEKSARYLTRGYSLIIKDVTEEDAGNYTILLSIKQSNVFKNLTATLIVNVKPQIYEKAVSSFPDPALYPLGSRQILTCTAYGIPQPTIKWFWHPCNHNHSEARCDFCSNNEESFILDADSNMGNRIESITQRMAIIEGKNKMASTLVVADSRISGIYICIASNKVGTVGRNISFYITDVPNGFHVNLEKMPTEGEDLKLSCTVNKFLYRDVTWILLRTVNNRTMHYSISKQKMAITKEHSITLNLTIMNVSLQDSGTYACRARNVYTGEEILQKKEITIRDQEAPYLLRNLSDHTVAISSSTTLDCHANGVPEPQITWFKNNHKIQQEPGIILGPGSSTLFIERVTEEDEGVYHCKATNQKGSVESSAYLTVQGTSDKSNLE
T6 sequence (P17948 27-758 limits assumed): as the sequence (P17948 27-758) above
T5 sequence (P35968 20-764): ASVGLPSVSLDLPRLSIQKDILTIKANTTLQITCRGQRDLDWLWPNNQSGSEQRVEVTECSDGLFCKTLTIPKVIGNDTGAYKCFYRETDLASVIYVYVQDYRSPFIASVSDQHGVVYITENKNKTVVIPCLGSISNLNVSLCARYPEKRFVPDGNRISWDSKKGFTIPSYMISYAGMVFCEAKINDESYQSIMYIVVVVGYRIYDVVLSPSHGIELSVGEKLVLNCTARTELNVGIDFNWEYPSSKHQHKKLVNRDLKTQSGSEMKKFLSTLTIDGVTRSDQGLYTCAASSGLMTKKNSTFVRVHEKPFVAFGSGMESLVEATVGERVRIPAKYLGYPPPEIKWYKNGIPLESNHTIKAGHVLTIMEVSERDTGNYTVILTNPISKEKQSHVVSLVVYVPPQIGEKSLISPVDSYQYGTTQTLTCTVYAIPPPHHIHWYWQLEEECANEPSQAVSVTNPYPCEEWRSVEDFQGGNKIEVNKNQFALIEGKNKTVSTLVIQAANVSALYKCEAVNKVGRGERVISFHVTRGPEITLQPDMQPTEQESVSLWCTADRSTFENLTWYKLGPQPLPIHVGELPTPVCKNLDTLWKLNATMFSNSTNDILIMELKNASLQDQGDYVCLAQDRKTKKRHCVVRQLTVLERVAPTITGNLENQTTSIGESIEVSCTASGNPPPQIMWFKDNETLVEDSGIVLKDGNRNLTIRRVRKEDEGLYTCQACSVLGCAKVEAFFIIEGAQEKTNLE
T4 sequence (P35918 20-762 limits assumed): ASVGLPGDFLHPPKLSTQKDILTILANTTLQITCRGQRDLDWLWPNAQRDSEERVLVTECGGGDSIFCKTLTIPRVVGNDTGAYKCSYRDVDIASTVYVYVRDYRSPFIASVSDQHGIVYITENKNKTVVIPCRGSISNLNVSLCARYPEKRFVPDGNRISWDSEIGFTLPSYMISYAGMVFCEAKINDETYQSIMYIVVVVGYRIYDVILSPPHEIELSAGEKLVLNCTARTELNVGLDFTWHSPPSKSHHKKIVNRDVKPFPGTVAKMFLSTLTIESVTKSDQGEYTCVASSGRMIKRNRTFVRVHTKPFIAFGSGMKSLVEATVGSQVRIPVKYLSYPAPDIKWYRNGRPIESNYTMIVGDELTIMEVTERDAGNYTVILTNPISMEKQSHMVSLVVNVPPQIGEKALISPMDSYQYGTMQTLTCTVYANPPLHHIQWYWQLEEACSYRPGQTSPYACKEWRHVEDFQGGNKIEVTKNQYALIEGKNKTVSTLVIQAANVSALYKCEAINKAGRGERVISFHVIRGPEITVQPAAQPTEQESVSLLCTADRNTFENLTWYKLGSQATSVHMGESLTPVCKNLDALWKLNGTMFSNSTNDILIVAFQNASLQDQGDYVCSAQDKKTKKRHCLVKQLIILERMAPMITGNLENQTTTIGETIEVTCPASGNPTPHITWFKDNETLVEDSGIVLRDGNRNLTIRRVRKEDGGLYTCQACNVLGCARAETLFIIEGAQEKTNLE

B1: anti-human VEGFR-1 antibody 18F1 (antibody, V domains shown)
VH: QAQVVESGGGVVQSGRSLRLSCAASGFAFSSYGMHWVRQAPGKGLEWVAVIWYDGSNKYYADSVRGRFTISRDNSENTLYLQMNSLRAEDTAVYYCARDHYGSGVHHYFYYGLDVWGQGTTVTVSS
VL: not shown
notes: Fully human antibody (gamma heavy chain, kappa light chain) from hybridomas of KM transgenic mice, purified; The light chain entry runs a few residues into the kappa constant region; also called MC-18F1; IMC-18F1
In the case of B1, the IC50 in assay [1] is 840 pM. Also, the binding result was “no binding (tested: 1 µg/mL)” in the assay with mouse VEGFR-1-AP, “no binding (tested: 1 µg/ml)” with mouse VEGFR-2 Fc and “no binding (tested: 1 µg/ml)” in assay [3]. The “Inhibition of PlGF-induced DU4475 cell growth in vitro (IC50)” value in assay [2] is 24000 pM. In assay [4], the EC50 stood at 100 pM. Moreover, in assay [5], the “VEGF-A and P1GF stimulated proliferation of DU4475 breast carcinoma cells (estimated IC50)” value was 30000 to 50000 pM. Also, the Kd in assay [6] was found to be 54 pM. In addition, the on-rate constant (kon) in assay [6] is 810000 M⁻¹ s⁻¹.
